The source of these data is US20220098306A1 (Xencor, published 2022).

The labels stand for the following.
T1: B7H3 (antigen of the affinity statements) (human, UniProt Q5ZPR3 29-466, limits assumed)
T1 construct: also called CD276
T1 sequence (looked up): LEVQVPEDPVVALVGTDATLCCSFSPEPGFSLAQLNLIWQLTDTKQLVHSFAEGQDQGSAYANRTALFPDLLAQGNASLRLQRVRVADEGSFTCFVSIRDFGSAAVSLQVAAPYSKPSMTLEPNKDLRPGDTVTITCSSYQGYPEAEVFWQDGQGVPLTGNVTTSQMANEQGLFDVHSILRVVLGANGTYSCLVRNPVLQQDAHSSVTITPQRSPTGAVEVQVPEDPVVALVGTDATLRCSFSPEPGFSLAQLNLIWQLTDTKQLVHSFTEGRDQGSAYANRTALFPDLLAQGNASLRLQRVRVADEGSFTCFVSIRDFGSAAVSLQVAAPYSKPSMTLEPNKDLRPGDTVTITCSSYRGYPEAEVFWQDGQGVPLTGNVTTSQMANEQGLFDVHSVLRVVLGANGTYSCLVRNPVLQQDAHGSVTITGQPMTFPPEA

B1: XENP34339 (bispecific antibody)
heavy 1: EVQLLESGGGLVQPGGSLRLSCAASGFTFSSYYMSWVRQAPGKGLEWVSTISESGDSTYYADSVKGRFTISRDNSKNTLYLQMNSLRAEDTAVYYCAKSGPGLRQVGFDYWGQGTLVTVSSASTKGPSVFPLAPSSKSTSGGTAALGCLVKDYFPEPVTVSWNSGALTSGVHTFPAVLQSSGLYSLSSVVTVPSSSLGTQTYICNVNHKPSDTKVDKKVEPKSCDKTHTCPPCPAPPVAGPSVFLFPPKPKDTLMISRTPEVTCVVVDVKHEDPEVKFNWYVDGVEVHNAKTKPREEEYNSTYRVVSVLTVLHQDWLNGKEYKCKVSNKALPAPIEKTISKAKGQPREPQVYTLPPSREEMTKNQVSLTCDVSGFYPSDIAVEWESDGQPENNYKTTPPVLDSDGSFFLYSKLTVDKSRWEQGDVFSCSVMHEALHNHYTQKSLSLSPGK
heavy 2: QVQLVQSGAEVKKPGASVKVSCKASGYIFTNNYMHWVRQAPGQGLEWMGIISPSVGRTAYAQKFQGRVTMTRDTSTSTVYMELSSLRSEDTAVYYCARGGGSSPRLDYWGQGTLVTVSSASTKGPSVFPLAPSSKSTSGGTAALGCLVKDYFPEPVTVSWNSGALTSGVHTFPAVLQSSGLYSLSSVVTVPSSSLGTQTYICNVNHKPSNTKVDKKVEPKSCGKPGSGKPGSQVQLVQSGAEVKKPGASVKVSCKASGYIFTNNYMHWVRQAPGQGLEWMGIISPSVGRTAYAQKFQGRVTMTRDTSTSTVYMELSSLRSEDTAVYYCARGGGSSPRLDYWGQGTLVTVSSASTKGPSVFPLAPSSKSTSGGTAALGCLVKDYFPEPVTVSWNSGALTSGVHTFPAVLQSSGLYSLSSVVTVPSSSLGTQTYICNVNHKPSNTKVDKKVEPKSCDKTHTCPPCPAPPVAGPSVFLFPPKPKDTLMISRTPEVTCVVVDVKHEDPEVKFNWYVDGVEVHNAKTKPREEQYNSTYRVVSVLTVLHQDWLNGKEYKCKVSNKALPAPIEKTISKAKGQPREPQVYTLPPSREQMTKNQVKLTCLVKGFYPSDIAVEWESNGQPENNYKTTPPVLDSDGSFFLYSKLTVDKSRWQQGNVFSCSVMHEALHNHYTQKSLSLSPGK
light: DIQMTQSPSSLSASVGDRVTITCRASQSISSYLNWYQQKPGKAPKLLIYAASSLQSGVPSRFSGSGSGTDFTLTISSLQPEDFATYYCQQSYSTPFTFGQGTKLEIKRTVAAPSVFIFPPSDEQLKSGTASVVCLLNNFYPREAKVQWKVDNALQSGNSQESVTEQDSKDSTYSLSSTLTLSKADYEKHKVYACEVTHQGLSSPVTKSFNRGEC
notes: 2+1 CLC format; also called B7H3 x CD28 bsAb in 2+1 CLC format; copies: 1 + 1 + 3
B2: XENP35612 (bispecific antibody)
heavy 1: B1 heavy 1 with E53G
heavy 2: B1 heavy 2
light: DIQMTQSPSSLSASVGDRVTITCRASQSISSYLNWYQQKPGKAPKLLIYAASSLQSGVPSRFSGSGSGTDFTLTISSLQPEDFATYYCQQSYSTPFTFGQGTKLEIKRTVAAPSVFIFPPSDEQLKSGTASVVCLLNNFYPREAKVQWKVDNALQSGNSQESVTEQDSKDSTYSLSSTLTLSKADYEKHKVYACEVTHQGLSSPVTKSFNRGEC
notes: 2+1 CLC format; copies: 1 + 1 + 3
B3: XENP34336 (bispecific antibody)
heavy 1: B1 heavy 1
heavy 2: B1 heavy 2 with N32H, V55A, R57S, A59D, N264H, V287A, R289S, A291D
light: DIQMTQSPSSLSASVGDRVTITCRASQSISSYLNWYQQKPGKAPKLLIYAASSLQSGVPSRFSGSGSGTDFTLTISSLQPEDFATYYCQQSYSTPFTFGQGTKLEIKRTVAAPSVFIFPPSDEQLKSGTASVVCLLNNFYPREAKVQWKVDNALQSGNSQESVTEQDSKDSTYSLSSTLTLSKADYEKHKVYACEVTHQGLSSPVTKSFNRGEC
notes: as for B2
B4: XENP35611 (bispecific antibody)
heavy 1: B1 heavy 1 with Y33A, E53G
heavy 2: B1 heavy 2
light: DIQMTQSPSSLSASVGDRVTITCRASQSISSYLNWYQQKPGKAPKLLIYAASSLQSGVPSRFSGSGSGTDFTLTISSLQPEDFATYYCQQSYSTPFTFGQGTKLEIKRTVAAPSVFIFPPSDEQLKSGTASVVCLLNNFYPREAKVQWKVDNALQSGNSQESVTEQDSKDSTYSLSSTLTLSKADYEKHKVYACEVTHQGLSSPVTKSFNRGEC
notes: as for B2
B5: XENP34732 (bispecific antibody)
heavy: EVQLLESGGGLVQPGGSLRLSCAASGFTFSNYYMAWVRQAPGKGLEWVSSISTGGGSTYYRDSVKGRFTISRDNSKSTLYLQMNSLRAEDTAVYYCTTDLSAIAATPFAYWGQGTLVTVSSASTKGPSVFPLAPSSKSTSGGTAALGCLVKDYFPEPVTVSWNSGALTSGVHTFPAVLQSSGLYSLSSVVTVPSSSLGTQTYICNVNHKPSDTKVDKKVEPKSCDKTHTCPPCPAPPVAGPSVFLFPPKPKDTLMISRTPEVTCVVVDVKHEDPEVKFNWYVDGVEVHNAKTKPREEEYNSTYRVVSVLTVLHQDWLNGKEYKCKVSNKALPAPIEKTISKAKGQPREPQVYTLPPSREEMTKNQVSLTCDVSGFYPSDIAVEWESDGQPENNYKTTPPVLDSDGSFFLYSKLTVDKSRWEQGDVFSCSVLHEALHSHYTQKSLSLSPGK
scFv-Fc: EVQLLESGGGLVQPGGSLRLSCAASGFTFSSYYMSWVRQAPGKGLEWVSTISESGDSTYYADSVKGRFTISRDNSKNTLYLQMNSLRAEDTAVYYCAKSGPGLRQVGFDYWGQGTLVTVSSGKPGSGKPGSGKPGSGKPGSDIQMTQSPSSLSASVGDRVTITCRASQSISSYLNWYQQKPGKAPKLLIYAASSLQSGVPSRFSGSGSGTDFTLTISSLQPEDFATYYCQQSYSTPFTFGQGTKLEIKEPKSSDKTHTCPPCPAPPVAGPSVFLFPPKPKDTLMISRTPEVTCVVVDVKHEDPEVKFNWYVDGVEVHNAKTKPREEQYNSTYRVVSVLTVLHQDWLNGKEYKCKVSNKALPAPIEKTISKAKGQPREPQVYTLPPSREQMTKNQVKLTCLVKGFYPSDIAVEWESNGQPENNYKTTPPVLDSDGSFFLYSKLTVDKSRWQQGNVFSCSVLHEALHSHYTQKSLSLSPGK
light: DIQMTQSPSSLSASVGDRVTITCRASQNIYTSLAWYQQKPGKAPKLLIYNAHSLQTGIPSRFSGSGSGADFTLTISSLQPEDFATYFCQQYYSGLTFGSGTKLEIKRTVAAPSVFIFPPSDEQLKSGTASVVCLLNNFYPREAKVQWKVDNALQSGNSQESVTEQDSKDSTYSLSSTLTLSKADYEKHKVYACEVTHQGLSSPVTKSFNRGEC
notes: 1+1 Fab-scFv-Fc; copies: 1 + 1 + 1
B6: XENP35151 (bispecific antibody)
heavy: EVQLVESGGGLVKPGGSLRLSCAASGFSFSVGYYMCWVRQAPGKGLEWVSCIYVGSGSSGSTYYASVKGRFTISSDTAKTSVYLQMNSLRAEDTAVYFCARTAGSDWRLDLWGQGTLVTVSSASTKGPSVFPLAPSSKSTSGGTAALGCLVKDYFPEPVTVSWNSGALTSGVHTFPAVLQSSGLYSLSSVVTVPSSSLGTQTYICNVNHKPSDTKVDKKVEPKSCDKTHTCPPCPAPPVAGPSVFLFPPKPKDTLMISRTPEVTCVVVDVKHEDPEVKFNWYVDGVEVHNAKTKPREEEYNSTYRVVSVLTVLHQDWLNGKEYKCKVSNKALPAPIEKTISKAKGQPREPQVYTLPPSREEMTKNQVSLTCDVSGFYPSDIAVEWESDGQPENNYKTTPPVLDSDGSFFLYSKLTVDKSRWEQGDVFSCSVLHEALHSHYTQKSLSLSPGK
scFv-Fc: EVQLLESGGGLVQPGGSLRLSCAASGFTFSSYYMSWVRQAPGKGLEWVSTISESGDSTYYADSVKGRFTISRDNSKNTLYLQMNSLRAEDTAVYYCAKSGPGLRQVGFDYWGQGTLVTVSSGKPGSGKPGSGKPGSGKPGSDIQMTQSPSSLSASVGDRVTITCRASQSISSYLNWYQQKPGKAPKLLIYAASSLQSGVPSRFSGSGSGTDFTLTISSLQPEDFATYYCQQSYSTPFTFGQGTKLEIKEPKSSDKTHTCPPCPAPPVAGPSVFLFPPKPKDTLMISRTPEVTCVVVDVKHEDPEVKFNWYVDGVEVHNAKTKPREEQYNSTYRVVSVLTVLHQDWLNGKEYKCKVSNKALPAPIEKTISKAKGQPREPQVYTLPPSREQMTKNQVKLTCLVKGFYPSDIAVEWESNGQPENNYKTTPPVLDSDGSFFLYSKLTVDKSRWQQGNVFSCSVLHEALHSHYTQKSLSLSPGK
light: DIVMTQSPSSLSASVGDRVTITCRASQSIANELSWYQQKPGKPPKLLIYRASTLTSGVPSRFKGSGSGTDFTLTISSLQPEDFATYYCQSTYNGRAIGFGGGTKVEIKRTVAAPSVFIFPPSDEQLKSGTASVVCLLNNFYPREAKVQWKVDNALQSGNSQESVTEQDSKDSTYSLSSTLTLSKADYEKHKVYACEVTHQGLSSPVTKSFNRGEC
notes: as for B5
B7: XENP35153 (bispecific antibody)
heavy: EVQLLESGGGLVQPGGSLRLSCAVSGFSLSSYGVIWVRQAPGKGLEYVSWVSSGGSTNYASSVKGRFTISRDTSKNTVYLQMNSLRAEDTAVYFCARGATNSGTDIWGPGTLVTVSSASTKGPSVFPLAPSSKSTSGGTAALGCLVKDYFPEPVTVSWNSGALTSGVHTFPAVLQSSGLYSLSSVVTVPSSSLGTQTYICNVNHKPSDTKVDKKVEPKSCDKTHTCPPCPAPPVAGPSVFLFPPKPKDTLMISRTPEVTCVVVDVKHEDPEVKFNWYVDGVEVHNAKTKPREEEYNSTYRVVSVLTVLHQDWLNGKEYKCKVSNKALPAPIEKTISKAKGQPREPQVYTLPPSREEMTKNQVSLTCDVSGFYPSDIAVEWESDGQPENNYKTTPPVLDSDGSFFLYSKLTVDKSRWEQGDVFSCSVLHEALHSHYTQKSLSLSPGK
scFv-Fc: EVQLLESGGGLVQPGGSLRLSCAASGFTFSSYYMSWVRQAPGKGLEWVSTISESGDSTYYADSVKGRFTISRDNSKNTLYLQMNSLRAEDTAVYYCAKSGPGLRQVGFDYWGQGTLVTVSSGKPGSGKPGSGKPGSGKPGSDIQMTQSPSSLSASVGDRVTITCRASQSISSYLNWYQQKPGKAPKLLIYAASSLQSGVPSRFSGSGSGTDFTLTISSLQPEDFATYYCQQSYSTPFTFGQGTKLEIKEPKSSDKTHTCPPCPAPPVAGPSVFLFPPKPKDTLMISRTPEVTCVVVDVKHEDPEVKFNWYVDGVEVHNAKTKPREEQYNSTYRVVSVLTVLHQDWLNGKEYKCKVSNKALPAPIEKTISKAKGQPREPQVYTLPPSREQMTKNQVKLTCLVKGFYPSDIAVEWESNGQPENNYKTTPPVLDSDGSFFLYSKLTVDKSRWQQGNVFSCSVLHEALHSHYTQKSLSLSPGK
light: DIVMTQSPSSLSASVGDRVTITCRASQSINSWLSWYQQKPGKPPKLLIYGASNLASGVPSRFKGSGSGTDFTLTISSLQPEDFATYYCQNNYGIIAAGATFGGGTKVEIKRTVAAPSVFIFPPSDEQLKSGTASVVCLLNNFYPREAKVQWKVDNALQSGNSQESVTEQDSKDSTYSLSSTLTLSKADYEKHKVYACEVTHQGLSSPVTKSFNRGEC
notes: as for B5

Residue numbers refer to the chain shown, from its start.

One experiment deals with T2, CD28 (antigen of the affinity determinations) (human, UniProt P10747 19-152, limits assumed).
T2 construct: also called human CD28
Description: binding affinity of the CD28 binding domain; method not given.
For orientation: Kd means the concentration at which binding is half-saturated. Higher therefore signals weaker binding. On to B1, for which binding was put at a Kd of 77 nM.

B2 came in with a Kd of 270 nM.

B3 returned a Kd of 440 nM.

Take B4: binding was characterised by a dissociation constant (Kd) of 610 nM.

In a further experiment the target is T1, B7H3 (antigen of the affinity …). In words: monovalent affinity in 1+1 bsAb format (Example 2B).
In the case of B5, the binding result was “binds”.

Take B6: the binding result is “binds”.

Turning to B7, the binding result is “binds”.
